Results taken from US20240110201A1 (SPARK THERAPEUTICS, published 2024).

Target: T1, C1-esterase (reagent of the Technochrom C1-INH kit, Diapharma 5345003) (human, UniProt P09871 16-688, limits assumed)
T1 sequence (looked up): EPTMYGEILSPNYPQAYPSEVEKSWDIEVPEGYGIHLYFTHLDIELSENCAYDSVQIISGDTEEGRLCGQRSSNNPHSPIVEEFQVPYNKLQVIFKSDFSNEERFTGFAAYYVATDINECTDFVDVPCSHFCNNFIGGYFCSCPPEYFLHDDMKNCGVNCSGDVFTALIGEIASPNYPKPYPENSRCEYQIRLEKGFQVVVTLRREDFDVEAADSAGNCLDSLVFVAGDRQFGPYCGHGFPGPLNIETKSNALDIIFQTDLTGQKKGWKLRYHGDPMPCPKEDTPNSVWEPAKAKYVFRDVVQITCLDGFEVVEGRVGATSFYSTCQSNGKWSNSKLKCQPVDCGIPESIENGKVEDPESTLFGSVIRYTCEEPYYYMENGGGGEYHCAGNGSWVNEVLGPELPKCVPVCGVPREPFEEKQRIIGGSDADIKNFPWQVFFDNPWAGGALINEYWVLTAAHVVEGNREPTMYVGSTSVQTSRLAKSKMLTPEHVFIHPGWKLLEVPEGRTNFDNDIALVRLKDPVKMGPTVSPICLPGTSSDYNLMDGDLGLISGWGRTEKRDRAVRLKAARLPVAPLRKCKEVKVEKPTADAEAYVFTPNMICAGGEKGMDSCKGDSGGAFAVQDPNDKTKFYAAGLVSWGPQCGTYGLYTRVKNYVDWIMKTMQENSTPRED
Experiment: cell-based or functional assay

B1: human C1 inhibitor (transgene product secreted into plasma after administration of AAV-encapsidated SERPING1 expression cassettes) (other)
chain: NPNATSSSSQDPESLQDRGEGKVATTVISKMLFVEPILEVSSLPTTNSTTNSATKITANTTDEPTTQPTTEPTTQPTIQPTQPTTQLPTDSPTQPTTGSFCPGPVTLCSDLESHSTEAVLGDALVDFSLKLYHAFSAMKKVETNMAFSPFSIASLLTQVLLGAGENTKTNLESILSYPKDFTCVHQALKGFTTKGVTSVSQIFHSPDLAIRDTFVNASRTLYSSSPRVLSNNSDANLELINTWVAKNTNNKISRLLDSLPSDTRLVLLNAIYLSAKWKTTFDPKKTRMEPFHFKNSVIKVPMMNSKKYPVAHFIDQTLKAKVGQLQLSHNLSLVILVPQNLKHRLEDMEQALSPSVFKAIMEKLEMSKFQPTLLTLPRIKVTTSQDMLSIMEKLEFFDFSYDLNLCGLTEDPDLQVSAMQHQTVLELTETGVEAAAASAISVARTLLVFEVQQPFLFVLWDQQHKFPVFMGRVYDPRA
  C1-INH activity, chromogenic assay of residual C1-esterase activity, reported as percentage of activity relative to a coagulation reference standard: 766 % activity
